According to US20230357838:

Columns and labels:
[1] = test system: EcDa01 (Escherichia coli)
[2] = test system: T1, MGYPDa20 (unidentified); conditions: 5mC 0.049, 5hmC 0.021
T1 sequence: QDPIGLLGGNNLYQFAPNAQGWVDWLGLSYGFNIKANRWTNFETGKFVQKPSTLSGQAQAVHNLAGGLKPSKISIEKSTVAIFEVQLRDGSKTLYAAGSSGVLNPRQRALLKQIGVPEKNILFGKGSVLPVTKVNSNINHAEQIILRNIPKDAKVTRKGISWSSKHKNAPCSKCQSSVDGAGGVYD

[3] = test system: T2, LbsDa01 (Simiaoa sunii)
T2 sequence: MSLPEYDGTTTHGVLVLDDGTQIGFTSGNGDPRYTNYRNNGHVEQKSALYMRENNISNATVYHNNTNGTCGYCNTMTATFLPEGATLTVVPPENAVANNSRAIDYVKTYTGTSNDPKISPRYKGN

[4] = test system: MGYPDa01 (unidentified)
[5] = test system: T3, MGYPDa06 (unidentified)
T3 sequence: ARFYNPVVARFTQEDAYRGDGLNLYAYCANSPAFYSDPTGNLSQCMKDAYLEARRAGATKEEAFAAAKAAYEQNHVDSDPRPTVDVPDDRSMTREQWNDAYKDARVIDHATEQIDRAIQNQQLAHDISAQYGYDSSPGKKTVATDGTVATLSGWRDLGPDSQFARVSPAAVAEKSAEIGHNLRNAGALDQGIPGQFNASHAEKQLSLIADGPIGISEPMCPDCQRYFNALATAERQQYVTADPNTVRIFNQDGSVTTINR

[6] = biological target: APOBEC3A (UniProt P31941); conditions: ssDNA deaminase control
[7] = test system: T4, MGYPDa26 (unidentified)
T4 sequence: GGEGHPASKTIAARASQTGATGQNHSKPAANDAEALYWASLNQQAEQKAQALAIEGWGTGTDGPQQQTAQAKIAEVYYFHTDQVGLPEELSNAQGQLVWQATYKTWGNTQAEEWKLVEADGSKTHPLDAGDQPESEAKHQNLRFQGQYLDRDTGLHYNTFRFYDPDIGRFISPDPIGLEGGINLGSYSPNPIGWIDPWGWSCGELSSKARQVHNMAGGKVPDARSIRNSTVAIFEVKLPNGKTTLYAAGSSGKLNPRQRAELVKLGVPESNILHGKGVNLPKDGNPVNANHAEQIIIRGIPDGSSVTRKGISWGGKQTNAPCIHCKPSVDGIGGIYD

[8] = test system: T5, RaDa01 (Ruminococcus sp.)
T5 sequence: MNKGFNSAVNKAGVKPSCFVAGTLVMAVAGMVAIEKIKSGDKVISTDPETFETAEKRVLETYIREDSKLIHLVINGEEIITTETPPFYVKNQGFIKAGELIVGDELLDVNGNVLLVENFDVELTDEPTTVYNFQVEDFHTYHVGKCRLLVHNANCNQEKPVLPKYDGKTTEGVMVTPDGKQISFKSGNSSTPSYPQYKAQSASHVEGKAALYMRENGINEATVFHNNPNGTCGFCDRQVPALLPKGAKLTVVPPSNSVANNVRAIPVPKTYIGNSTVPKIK

[9] = test system: T6, chimera_10
T6 sequence: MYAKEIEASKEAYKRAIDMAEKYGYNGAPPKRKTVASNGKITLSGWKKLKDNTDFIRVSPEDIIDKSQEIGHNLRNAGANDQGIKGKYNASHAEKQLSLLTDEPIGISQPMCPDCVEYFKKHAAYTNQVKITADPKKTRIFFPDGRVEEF

[10] = test system: MmgDa02; conditions: CG 0.446, CH 0.002
[11] = test system: NsDa01 (Neisseria subflava); conditions: 5mC 0.059, 5hmC 0.017
[12] = test system: T7, BcDa02 (Burkholderia cepacia)
T7 sequence: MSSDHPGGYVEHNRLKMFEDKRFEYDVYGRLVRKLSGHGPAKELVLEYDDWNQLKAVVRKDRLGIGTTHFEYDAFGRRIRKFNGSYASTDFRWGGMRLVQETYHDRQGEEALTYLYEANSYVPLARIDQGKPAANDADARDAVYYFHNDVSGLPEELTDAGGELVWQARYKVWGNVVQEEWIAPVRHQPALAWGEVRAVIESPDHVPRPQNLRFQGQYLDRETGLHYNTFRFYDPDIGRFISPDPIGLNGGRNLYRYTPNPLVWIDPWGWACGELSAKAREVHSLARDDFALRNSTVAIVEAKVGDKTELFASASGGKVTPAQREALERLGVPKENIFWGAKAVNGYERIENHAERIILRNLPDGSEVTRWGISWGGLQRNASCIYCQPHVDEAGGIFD

[13] = test system: T8, AncDa04
T8 sequence: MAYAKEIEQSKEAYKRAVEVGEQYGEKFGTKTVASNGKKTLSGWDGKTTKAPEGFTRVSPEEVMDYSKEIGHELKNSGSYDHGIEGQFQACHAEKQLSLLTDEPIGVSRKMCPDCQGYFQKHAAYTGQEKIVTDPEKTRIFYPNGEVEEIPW

APOBEC3A, sequence (P31941 other isoform, or with tags, fused parts or gaps): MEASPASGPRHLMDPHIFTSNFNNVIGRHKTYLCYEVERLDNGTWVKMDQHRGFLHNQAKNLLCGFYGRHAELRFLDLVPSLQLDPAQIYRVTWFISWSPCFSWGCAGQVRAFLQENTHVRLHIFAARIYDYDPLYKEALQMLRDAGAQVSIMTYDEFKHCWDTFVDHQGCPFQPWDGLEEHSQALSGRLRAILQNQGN

unmodified dsDNA (E. coli C2566 genomic)
activity (fraction deaminated) [1]: 0.566 | activity (fraction deaminated) [2]: 0.857 | activity (fraction deaminated) [3]: 0.889 | activity (fraction deaminated) [4]: 0.748 | activity (fraction deaminated) [5]: 0.997 | activity (fraction deaminated) [6]: 0.331 | activity (fraction deaminated) [7]: 0.929 | activity (fraction deaminated) [8]: 0.465 | activity (fraction deaminated) [9]: 0.95 | activity (fraction deaminated) [10]: 0.133 | activity (fraction deaminated) [11]: 0.597 | activity (fraction deaminated) [12]: 0.772 | activity (fraction deaminated) [13]: 0.992
